Measured values reported in patent US20240301052A1 (LANOVA MEDICINES DEVELOPMENT, published 2024).

T1: human SLC34A2 (human, UniProt O95436 1-690)
T1 construct: whole, on cells; also called human solute carrier 34 A2; NaPi2b
T1 sequence (looked up): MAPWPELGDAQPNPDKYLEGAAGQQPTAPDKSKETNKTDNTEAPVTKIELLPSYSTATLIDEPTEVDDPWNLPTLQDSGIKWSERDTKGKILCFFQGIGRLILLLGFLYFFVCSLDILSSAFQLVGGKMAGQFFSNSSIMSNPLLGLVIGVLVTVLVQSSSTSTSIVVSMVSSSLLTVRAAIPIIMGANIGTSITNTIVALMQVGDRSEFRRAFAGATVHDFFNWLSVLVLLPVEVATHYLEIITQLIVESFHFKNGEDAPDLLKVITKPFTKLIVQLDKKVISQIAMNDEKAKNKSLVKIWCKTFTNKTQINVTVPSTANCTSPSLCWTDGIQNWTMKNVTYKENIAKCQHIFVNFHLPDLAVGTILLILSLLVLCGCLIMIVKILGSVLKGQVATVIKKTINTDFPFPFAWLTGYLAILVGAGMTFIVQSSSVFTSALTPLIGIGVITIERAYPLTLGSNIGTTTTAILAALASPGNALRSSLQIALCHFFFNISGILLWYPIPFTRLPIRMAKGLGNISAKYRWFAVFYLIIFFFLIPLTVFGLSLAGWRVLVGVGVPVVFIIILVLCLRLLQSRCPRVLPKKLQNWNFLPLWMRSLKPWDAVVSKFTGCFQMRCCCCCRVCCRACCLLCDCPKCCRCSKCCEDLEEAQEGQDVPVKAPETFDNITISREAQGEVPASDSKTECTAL

T2: Rhesus SLC34A2 (Rhesus, UniProt F7HDA3 1-690)
T2 construct: whole, on cells
T2 sequence: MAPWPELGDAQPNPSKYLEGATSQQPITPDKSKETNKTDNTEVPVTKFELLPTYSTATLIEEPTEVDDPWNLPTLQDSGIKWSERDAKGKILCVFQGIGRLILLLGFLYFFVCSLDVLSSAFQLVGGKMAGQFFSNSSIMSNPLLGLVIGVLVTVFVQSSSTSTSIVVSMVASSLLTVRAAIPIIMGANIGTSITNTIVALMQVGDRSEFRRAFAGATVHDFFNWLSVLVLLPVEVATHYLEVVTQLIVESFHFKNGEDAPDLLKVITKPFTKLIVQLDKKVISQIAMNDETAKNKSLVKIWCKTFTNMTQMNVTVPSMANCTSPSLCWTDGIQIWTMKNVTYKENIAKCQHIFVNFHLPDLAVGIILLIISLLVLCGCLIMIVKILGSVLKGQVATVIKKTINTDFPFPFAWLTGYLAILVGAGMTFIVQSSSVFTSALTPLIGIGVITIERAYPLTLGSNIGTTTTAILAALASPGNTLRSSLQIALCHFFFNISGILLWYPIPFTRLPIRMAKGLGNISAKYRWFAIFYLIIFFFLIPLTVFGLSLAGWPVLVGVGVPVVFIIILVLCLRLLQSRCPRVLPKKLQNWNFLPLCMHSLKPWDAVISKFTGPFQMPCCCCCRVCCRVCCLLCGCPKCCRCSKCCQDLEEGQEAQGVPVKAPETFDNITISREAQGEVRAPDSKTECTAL


Columns and labels:
human SLC34A2 [1] = biological target: T1, human SLC34A2; assay: FACS, RMG-1 cells
human SLC34A2 [2] = biological target: T1, human SLC34A2; assay: FACS, OVCAR3 cells
human SLC34A2 [3] = biological target: T1, human SLC34A2; assay: FACS, RMG-1 cells; remark: listed apart in the source
Summary of the method: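 Flow-cytometric binding of chimeric antibodies (8-point, 4-fold dilutions from 200 nM) to RMG-1 cells, 60 min at 4° C, followed by fluorescent secondary antibody for 30 min at 4° C.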

human SLC34A2 [4] = biological target: T1, human SLC34A2; assay: FACS, OVCAR3 cells; remark: listed apart in the source
Summary of the method: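 Chimeric hIgG1 antibodies titrated from 200 nM (4-fold, 8 points) on OVCAR3 cells or HEK293 cells expressing human SLC34A2, 60 min at 4° C. Bound antibody detected with fluorescent secondary antibody (30 min, 4° C) and measured by flow cytometry.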

human SLC34A2 [5] = biological target: T1, human SLC34A2; assay: cell-based or functional assay
Rhesus SLC34A2 = biological target: T2, Rhesus SLC34A2; assay: FACS, HEK293/Rhesus SLC34A2 cells
Description: Briefly, the Rhesus SLC34A2 expressing HEK293 engineering cells (HEK293/Rhesus_SLC34A2) were incubated with chimeric Abs (from 200 nM, 4 folds dilution, 8 points). After incubation at 4° C. for 60 minutes, the cells were washed with FACS buffer twice, then stained with fluorescent conjugated secondary antibody at 4° C. for 30 minutes. After that the cells were washed twice and analyzed by flow cytometry.

human SLC34A2 [6] = biological target: T1, human SLC34A2; assay: FACS, OVCAR3 cells; remark: listed apart in the source
Description: The binding of these humanized antibodies to OVCAR3 cells was evaluated as described above, and the results are shown in FIG. 12A-D and Tables 16A-D.

Row | Binder | EC50 (human SLC34A2 [1]) [nM] | EC50 (human SLC34A2 [2]) [nM] | EC50 (human SLC34A2 [3]) [nM] | Top (MFI) (human SLC34A2 [3]) | EC50 (human SLC34A2 [4]) [nM] | Top (MFI) (human SLC34A2 [4]) | cytotoxicity EC50 (human SLC34A2 [5]) [nM] | cytotoxicity Inhibition % (human SLC34A2 [5]) [%] | EC50 (Rhesus SLC34A2) [nM] | Top (MFI) (Rhesus SLC34A2) | EC50 (human SLC34A2 [6]) [nM] | Top (MFI) (human SLC34A2 [6])
1 | 63A11D5B4.p1.z9 hIgG1 (antibody, V domains shown, humanized hIgG1) VH: QVQLVQSGAEVVKPGASVKMSCKTSGYTFITYNMHWVRQAPGQGLEWIGAIYPGSGDTSYNQKFKGRVTLTADKSTSTAYMELSSLRSEDTAVYYCSISTIITTGAVDYWGQGTLVTVSS VL: DIQMTQSPSSLSASVGDRVTITCKASQDVGTAVAWYQQKPGKVPKLLIYWTSTRHTGVPSRFSGSGSGTDFTLTISSLQPEDVATYYCQQYSRIPLTFGGGTKVEIK | 28.3 | 9.1 | – | – | – | – | – | – | – | – | – | –
2 | xi63A11D5B4 hIgG1 (antibody, V domains shown, chimeric, hIgG1) VH: QVQLQQPGAELVKPGASVKMSCRTSGYTFITYNMHWVKQTPGQGREWIGAIYPGNGDTSYNQKFKGKATLTADKSSSTAYMQLNSLTSEDSAVYYCSISTIITTGAVDYWGQGTSVTVAS VL: DIVMTQSHKFMSTSVGDRVSITCKASQDVGTAVAWYQQKAGQSPKLLIYWTSTRHTGVPDRFTGSGSGTDFTLIIRSLQSEDLADYFCQQYSRIPLTFGSGTKLEIK | – | – | 5.32 | 9770 | 3.85 | 43000 | 0.66 | 99 | 2.56 | 15100 | – | –
3 | 62G10E4G8.p3.z15 hIgG1 (antibody, V domains shown, humanized hIgG1) VH: QVQLVQSGAEVVKPGASVKMSCKASGYTFPSYITHWVKQAPGQGLEWIGAIYPGNADTSYIQKFKGRATLTADKSTSTAYMELSSLRSEDTAVYYCARGTYGTSAWFTYWGQGTLVTVSS VL: EIVLTQSPATLSVSPGERATLSCRARQNIGNNLYWYQQKPGQSPRLLIKYASQSISGIPSRFSGSGSGTDFTLTISSLQSEDFAVYFCQQSFSWPLTFGQGTKLEIK | 3.7 | 3.8 | – | – | – | – | – | – | – | – | 3.76 | 27300
4 | xi62G10E4G8 hIgG1 (antibody, V domains shown, chimeric, hIgG1) VH: QVQLQQSGAEVVKPGASVKMSCKASGYTFPSYITHWVKQTPGQGLEWIGAIYPGNGDTSYIQKFKGKATLTADKSSSTAYMQLSSLTSEDSAVYYCARGTYGTSAWFTYWGQGTLVTVSA VL: DIVLTQSPATLSVTPGDSVSLSCRARQNIGNNLYWYQQKSHESPRLLIKYASQSISGIPSRFSGSGSGTDFTLTINSVETEDFGVYFCQQSFSWPLTFGAGTKLELK | – | – | 3.65 | 9370 | 2.55 | 43000 | 0.42 | 97.2 | 2.53 | 12000 | 3.73 | 27600
5 | 91C9F1.p1.z7 hIgG1 (antibody, V domains shown, humanized hIgG1) VH: QVQLVQSGAEVKKPGSSVKVSCKTSGFFFTEYIIHWVRQAPGQGLEWIGGIIPNNDVTNYKQNFRGRVTLTADKSTSTAYMELSSLRSEDTAVYYCARWRNAYYSAMDSWGQGTTVTVSS VL: DIQVTQSPSSLSTSVGDRVTITCTASQDVGTAVAWYQQKPGKSPKLLIYWASTRHTGVPERFTGSGSGTDFTLTISSVQPEDVATYFCQQYRTSPLTFGVGTKVEIK | 2.3 | 2.4 | – | – | – | – | – | – | – | – | – | –
6 | xi91C9F1 hIgG1 (antibody, V domains shown, chimeric, hIgG1) VH: EVQLQQSGPELVKPGTSVKISCKTSGFFFTEYIIHWVKQSHGRSLEWIGGIIPNNGVTNYKQNFRGKAALTADKSSNTAYMELRSLTSEDSAVYYCARWRNGYYSAMDSWGQGTSVTVSS VL: DIVVTQSHKFMSTSLGDRVSITCTASQDVGTAVAWYQQKPGHSPKLLIYWASTRHTGVPERFTGSGSGTDFTLTITNVQSEDLADYFCQQYRTSPLTFGVGTKLELK | – | – | 1.3 | 9230 | 1.64 | 26400 | 0.8 | 97.4 | 0.95 | 12200 | – | –
7 | 30H9B8F9.p1.z5 hIgG1 (antibody, V domains shown, humanized hIgG1) VH: QVQLVQSGAEVKKPGASVKVSCKTSGYTFTTNNMHWVRQAPGQGLEWIGAIYPGSGATAYNQKFKGRVTMTADTSTSTVYMELSSLRSEDTAVYYCARGMYGHGAMDYWGQGTLVTVSS VL: DIQLTQSPSFLSASVGDRVTITCKASQDVGTAVAWYQQKPGKAPKLLIYWATTRHSGVPSRFSGSGSGTEFTLTISSLQPEDFATYYCQQYSSNPLTFGQGTKLEIK | 1.4 | 0.9 | – | – | – | – | – | – | – | – | 1.43 | 26900
8 | xi30H9B8F9 hIgG1 (antibody, V domains shown, chimeric, hIgG1) VH: QVQLQQPGAELVKPGASVKMSCKTSGYTFTTNNMHWVKQTPGQGLEWIGAIYPGNGATAYNQKFKGKATLTADKSSSTAYMQLSSLTSEASAVYYCARGMYGHGAMDYWGQGTSVIVSS VL: DIVMTQSHKFMSRSVGDRVRITCKASQDVGTAVAWYQQKPGQSPKLLIYWATTRHSGVPDRFTGSGSGTDFIFTISNVQSEDLADYFCQQYSSNPLTFGAGTKLELK | – | – | 0.99 | 9470 | 0.53 | 41900 | 0.84 | 91.7 | 1.26 | 17000 | 1.19 | 29300
